T1: isoform 121 of human VEGF-A (Peprotech) (human, UniProt P15692-9 27-147)
T1 construct: also called human VEGF121; VEGF 121
T1 sequence (looked up): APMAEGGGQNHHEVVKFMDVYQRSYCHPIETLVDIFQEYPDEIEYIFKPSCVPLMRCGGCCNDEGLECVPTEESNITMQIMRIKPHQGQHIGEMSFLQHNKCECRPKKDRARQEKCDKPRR

T2: mouse VEGF (Peprotech) (mouse, UniProt Q00731-2 27-190, limits assumed)
T2 construct: also called Mouse VEGF-A
T2 sequence (looked up): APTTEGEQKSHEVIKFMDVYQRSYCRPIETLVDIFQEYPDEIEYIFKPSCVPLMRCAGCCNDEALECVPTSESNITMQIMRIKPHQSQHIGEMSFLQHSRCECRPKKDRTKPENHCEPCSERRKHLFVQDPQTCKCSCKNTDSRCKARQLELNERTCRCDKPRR

T3: human GST-VEGF (human, UniProt P15692-9 27-147)
T3 construct: also called GST-VEGF humano; not shown: GST fusion partner
T3 sequence (looked up): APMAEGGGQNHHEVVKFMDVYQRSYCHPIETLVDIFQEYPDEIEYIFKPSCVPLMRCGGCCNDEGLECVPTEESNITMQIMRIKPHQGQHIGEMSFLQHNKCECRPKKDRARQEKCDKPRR


What was measured:
P64K-VEGFKDR- (human) [1] = biological target: P64K-VEGFKDR- (human) (UniProt P15692); assay: ELISA; antigen coated 1 µg/ml; Fab 10 µg/mL; 9E10-peroxidase
[2] = biological target: T1, isoform 121 of human VEGF-A (Peprotech); assay: as above
Experimental: (§1) After blocking the plates with PBS-skimmed milk 4%, the Fab antibody fragments diluted in PBS-skimmed milk 4% were added at a 10 μg/mL concentration, and incubated for 1 h at 22° C. After several washes, 9E10 monoclonal antibody conjugated to peroxidase was added for 1 hour. After washing, the fragments bound to the solid phase were detected by the addition of substrate solution. The absorbance was read at 492 nm in a microplate reader.

[3] = biological target: T4, isoform 165 of human VEGF-A (Peprotech) (human, UniProt P15692-4 27-191); assay: as above
T4 construct: also called human VEGF165; VEGF 165
Target sequence in this assay (P15692 other isoform, or with tags, fused parts or gaps limits assumed): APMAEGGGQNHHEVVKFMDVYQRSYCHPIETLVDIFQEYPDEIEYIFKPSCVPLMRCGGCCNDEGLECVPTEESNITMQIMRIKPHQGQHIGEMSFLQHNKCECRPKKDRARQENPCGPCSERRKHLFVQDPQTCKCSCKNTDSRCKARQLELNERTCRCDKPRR
Experimental: as §1

mouse VEGF (Peprotech) [4] = biological target: T2, mouse VEGF (Peprotech); assay: as above
Experimental: as §1

[5] = biological target: T4, isoform 165 of human VEGF-A (Peprotech); assay: SPR, BIAcore-X
Experimental: (§2) A CM5 sensor chip was activated via the covalent binding of human VEGF using N-Ethyl-N′-(3-dimethylaminopropyl)carbodihimide hydrochloride (EDC) and N-hydroxysuccinimide (NHS), according to the manufacturer's instructions.
(§3) The kinetic parameters and the equilibrium dissociation constants (KD) were calculated using the BIA Evaluation 3.2 software. The binding data were globally adjusted to a Langmuir 1:1 binding model.

P64K-VEGFKDR- (human) [6] = biological target: P64K-VEGFKDR- (human) (UniProt P15692); assay: ELISA; antigen coated 1 µg/ml; scFv 10 µg/mL; 9E10-peroxidase
[7] = biological target: T1, isoform 121 of human VEGF-A (Peprotech); assay: as above
Experimental: (§4) After several washes, 9E10 monoclonal antibody conjugated to peroxidase was added for 1 hour. After washing, the fragments bound to the solid phase were detected by the addition of substrate solution. The absorbance was read at 492 nm in a microplate reader.

[8] = biological target: T4, isoform 165 of human VEGF-A (Peprotech); assay: as above
Target sequence in this assay (P15692 other isoform, or with tags, fused parts or gaps limits assumed): as above
Experimental: as §4

mouse VEGF (Peprotech) [9] = biological target: T2, mouse VEGF (Peprotech); assay: as above
Experimental: as §4

[10] = biological target: T4, isoform 165 of human VEGF-A (Peprotech); assay: SPR, BIAcore-X; VEGF 165 coupled to CM5 chip; scFv injected; Langmuir 1:1
Target sequence in this assay (P15692 other isoform, or with tags, fused parts or gaps limits assumed): as above
Experimental: as §2, §3

[11] = biological target: T1, isoform 121 of human VEGF-A (Peprotech); assay: competition ELISA: human VEGF-A isoform 121 coated, scFv varied, blocked ligand soluble KDR-Fc (VEGFR2) at 0.5 ug/mL, bound KDR-Fc detected with anti-human IgG-HRPO, absorbance 492 nm
Text: Detection of bound soluble receptors was made using anti human IgG antibodies conjugated with HRPO.

human GST-VEGF = biological target: T3, human GST-VEGF; assay: competition ELISA on coated GST-VEGF with soluble scFv 2H1
Experimental: For this, Maxisorp 96-well plates (Nunc) were coated with 10 μg/mL GST-VEGF, followed by blocking with PBS-4% skimmed milk. […] After several washes with PBS-0.1% Tween 20, VEGF-bound phages were detected using an anti-M13 antibody, conjugated to peroxidase (Amersham-Pharmacia) for 1 hour at 22° C. Following several washes, the reactions were developed with substrate solution. Absorbance was read at 492 nm in a microplate reader. […] This value is a relative indicator of the affinity of the different clones for the antigen. Higher IC50 values correspond with higher affinity.

Binder	absorbance at 492 nm (P64K-VEGFKDR- (human) [1])	absorbance at 492 nm [2]	absorbance at 492 nm [3]	absorbance at 492 nm (mouse VEGF (Peprotech) [4])	fold affinity against scFv 2H1 [5] [fold]	absorbance at 492 nm (P64K-VEGFKDR- (human) [6])	absorbance at 492 nm [7]	absorbance at 492 nm [8]	absorbance at 492 nm (mouse VEGF (Peprotech) [9])	Kd [10] [nM]	IC50 (read off the curve) [11] [µg/mL]	fold IC50 (relative affinity) against the original phage displayed scFv 2H1 (human GST-VEGF) [fold]
Fab 2H1-32 (Fab, V domains shown) VH: QVQLVQSGAEVKKPGESLKISCKGSGYSFTSYWIGWVRQMPGKGLEWMGIIYPGDSDTRYSPSFQGQVTISADKSISTAYLQWSSLKASDTAMYYCARLVVRDTEIWGQGTMVTVSS VL: QAVVTQEPSLTVSPGGTVTLTCASSIGAVTSGNYPNWFQQRPGQPPRALIYSTSNKHSWTPARFSGSLLGGKAALTLSGAQPEDEAEYYCLLSYSGARPVFGGGTKLTVLG	0.704	0.589	0.601	0.091								
Fab L3H6 (Fab, V domains shown, The entries are the mature chains without the six histidines and c-myc that the heavy chain carried at its C-terminus in the assay) VH: QVQLVQSGAEVKKPGESLKISCKGSGYSFTSYWIGWVRQMPGKGLEWMGIIYPGDSDTRYSPSFQGQVTISADKSISTAYLQWSSLKASDTAMYYCARQGTHNRKIWGQGTMVTVSS VL: QAVVTQEPSLTVSPGGTVTLTCASSTGAVTSGNYPNWFQQRPGQPPRALIYSTSNKHSWTPARFSGSLLGGKAALTLSGAQPEDEAEYYCRLSYDLARPVFGGGTKLTVLG	2.6	2.56	2.46	1.19								
Fab L3H7 (Fab, V domains shown, Entries lack the six histidines and c-myc of the heavy chain) VH: QVQLVQSGAEVKKPGESLKISCKGSGYSFTSYWIGWVRQMPGKGLEWMGIIYPGDSDTRYSPSFQGQVTISADKSISTAYLQWSSLKASDTAMYYCARPYATDTRIWGQGTMVTVSS VL: QAVVTQEPSLTVSPGGTVTLTCASSTGAVTSGNYPNWFQQRPGQPPRALIYSTSNKHSWTPARFSGSLLGGKAALTLSGAQPEDEAEYYCRLSYDLARPVFGGGTKLTVLG	2.42	2.22	2.2	1.1								
Fab L3H5 (Fab, V domains shown, Entries lack the six histidines and c-myc of the heavy chain) VH: QVQLVQSGAEVKKPGESLKISCKGSGYSFTSYWIGWVRQMPGKGLEWMGIIYPGDSDTRYSPSFQGQVTISADKSISTAYLQWSSLKASDTAMYYCARLVHRYRAIWGQGTMVTVSS VL: QAVVTQEPSLTVSPGGTVTLTCASSTGAVTSGNYPNWFQQRPGQPPRALIYSTSNKHSWTPARFSGSLLGGKAALTLSGAQPEDEAEYYCRLSYDLARPVFGGGTKLTVLG	2.51	2.25	2.35	1.09								
scFv L3H6 antibody fragment (scFv, soluble, from E. coli) scFv: QQVQLVQSGAEVKKPGESLKISCKGSGYSFTSYWIGWVRQMPGKGLEWMGIIYPGDSDTRYSPSFQGQVTISADKSISTAYLQWSSLKASDTAMYYCARQGTHNRKIWGQGTMVTVSSAPQAKSSGSGSESKVDQAVVTQEPSLTVSPGGTVTLTCASSTGAVTSGNYPNWFQQRPGQPPRALIYSTSNKHSWTPARFSGSLLGGKAALTLSGAQPEDEAEYYCRLSYDLARPVFGGGTKLTVLG					5 to 20	2.77	2.84	2.89	1.43	26.1	~8	
phage displayed scFv clone 3F3 (scFv, Displayed on M13 phage as a protein III fusion; the phage part is not in the letters., also called VH H6) scFv: QQVQLVQSGAEVKKPGESLKISCKGSGYSFTSYWIGWVRQMPGKGLEWMGIIYPGDSDTRYSPSFQGQVTISADKSISTAYLQWSSLKASDTAMYYCARQGTHNRKIWGQGTMVTVSSAPQAKSSGSGSESKVDQAVVTQEPSLTVSPGGTVTLTCASSTGAVTSGNYPNWFQQRPGQPPRALIYSTSNKHSWTPARFSGSLLGGKAALTLSGAQPEDEAEYYCLLSYSGARPVFGGGTKLTVLG												6 to 10
phage displayed scFv clone 4D8 (scFv, Displayed on M13 phage as a protein III fusion; the phage part is not in the letters., also called VH H7) scFv: QQVQLVQSGAEVKKPGESLKISCKGSGYSFTSYWIGWVRQMPGKGLEWMGIIYPGDSDTRYSPSFQGQVTISADKSISTAYLQWSSLKASDTAMYYCARPYATDTRIWGQGTMVTVSSAPQAKSSGSGSESKVDQAVVTQEPSLTVSPGGTVTLTCASSTGAVTSGNYPNWFQQRPGQPPRALIYSTSNKHSWTPARFSGSLLGGKAALTLSGAQPEDEAEYYCLLSYSGARPVFGGGTKLTVLG												6 to 10
scFv L3H5 antibody fragment (scFv, soluble, from E. coli) scFv: QQVQLVQSGAEVKKPGESLKISCKGSGYSFTSYWIGWVRQMPGKGLEWMGIIYPGDSDTRYSPSFQGQVTISADKSISTAYLQWSSLKASDTAMYYCARLVHRYRAIWGQGTMVTVSSAPQAKSSGSGSESKVDQAVVTQEPSLTVSPGGTVTLTCASSTGAVTSGNYPNWFQQRPGQPPRALIYSTSNKHSWTPARFSGSLLGGKAALTLSGAQPEDEAEYYCRLSYDLARPVFGGGTKLTVLG						2.61	2.78	2.8	1.39	42.1	~9	
scFv L3H7 antibody fragment (scFv, soluble, from E. coli) scFv: QQVQLVQSGAEVKKPGESLKISCKGSGYSFTSYWIGWVRQMPGKGLEWMGIIYPGDSDTRYSPSFQGQVTISADKSISTAYLQWSSLKASDTAMYYCARPYATDTRIWGQGTMVTVSSAPQAKSSGSGSESKVDQAVVTQEPSLTVSPGGTVTLTCASSTGAVTSGNYPNWFQQRPGQPPRALIYSTSNKHSWTPARFSGSLLGGKAALTLSGAQPEDEAEYYCRLSYDLARPVFGGGTKLTVLG					5 to 20	2.47	2.54	2.51	1.12	87.3	~10	

Source: patent publication US20140086829A1 (BIOREC S A, published 2014)
